In article PMC4004530 (Circulation research, 2013) one finds Kd data, which are given here for two molecules.

Where two headings read alike, the source gives them in different places.

For orientation: Kd means the concentration at which binding is half-saturated. Higher therefore signals weaker binding.

The target of experiment [1] is Cardiac ryanodine receptor (RyR2) in rat ventricular myocytes (rat (endogenous in ventricular myocytes)) (UniProt B0LPN4). Briefly: FRET or BRET. A general note: BRET reads energy transfer from a luciferase to a nearby fluorophore.
Experiment [2] shares this target. In words: FRET or BRET. The source holds these as a separate data set.
Experiment [3] has as its target Cardiac ryanodine receptor (RyR2) in rat ventricular myocytes (rat (endogenous in ventricular myocytes), UniProt B0LPN4 1-4955). Briefly: other fluorescence titration.

Sequence of Cardiac ryanodine receptor (RyR2) in rat ventricular myocytes (rat (endogenous in ventricular myocytes)) (B0LPN4 whole entry): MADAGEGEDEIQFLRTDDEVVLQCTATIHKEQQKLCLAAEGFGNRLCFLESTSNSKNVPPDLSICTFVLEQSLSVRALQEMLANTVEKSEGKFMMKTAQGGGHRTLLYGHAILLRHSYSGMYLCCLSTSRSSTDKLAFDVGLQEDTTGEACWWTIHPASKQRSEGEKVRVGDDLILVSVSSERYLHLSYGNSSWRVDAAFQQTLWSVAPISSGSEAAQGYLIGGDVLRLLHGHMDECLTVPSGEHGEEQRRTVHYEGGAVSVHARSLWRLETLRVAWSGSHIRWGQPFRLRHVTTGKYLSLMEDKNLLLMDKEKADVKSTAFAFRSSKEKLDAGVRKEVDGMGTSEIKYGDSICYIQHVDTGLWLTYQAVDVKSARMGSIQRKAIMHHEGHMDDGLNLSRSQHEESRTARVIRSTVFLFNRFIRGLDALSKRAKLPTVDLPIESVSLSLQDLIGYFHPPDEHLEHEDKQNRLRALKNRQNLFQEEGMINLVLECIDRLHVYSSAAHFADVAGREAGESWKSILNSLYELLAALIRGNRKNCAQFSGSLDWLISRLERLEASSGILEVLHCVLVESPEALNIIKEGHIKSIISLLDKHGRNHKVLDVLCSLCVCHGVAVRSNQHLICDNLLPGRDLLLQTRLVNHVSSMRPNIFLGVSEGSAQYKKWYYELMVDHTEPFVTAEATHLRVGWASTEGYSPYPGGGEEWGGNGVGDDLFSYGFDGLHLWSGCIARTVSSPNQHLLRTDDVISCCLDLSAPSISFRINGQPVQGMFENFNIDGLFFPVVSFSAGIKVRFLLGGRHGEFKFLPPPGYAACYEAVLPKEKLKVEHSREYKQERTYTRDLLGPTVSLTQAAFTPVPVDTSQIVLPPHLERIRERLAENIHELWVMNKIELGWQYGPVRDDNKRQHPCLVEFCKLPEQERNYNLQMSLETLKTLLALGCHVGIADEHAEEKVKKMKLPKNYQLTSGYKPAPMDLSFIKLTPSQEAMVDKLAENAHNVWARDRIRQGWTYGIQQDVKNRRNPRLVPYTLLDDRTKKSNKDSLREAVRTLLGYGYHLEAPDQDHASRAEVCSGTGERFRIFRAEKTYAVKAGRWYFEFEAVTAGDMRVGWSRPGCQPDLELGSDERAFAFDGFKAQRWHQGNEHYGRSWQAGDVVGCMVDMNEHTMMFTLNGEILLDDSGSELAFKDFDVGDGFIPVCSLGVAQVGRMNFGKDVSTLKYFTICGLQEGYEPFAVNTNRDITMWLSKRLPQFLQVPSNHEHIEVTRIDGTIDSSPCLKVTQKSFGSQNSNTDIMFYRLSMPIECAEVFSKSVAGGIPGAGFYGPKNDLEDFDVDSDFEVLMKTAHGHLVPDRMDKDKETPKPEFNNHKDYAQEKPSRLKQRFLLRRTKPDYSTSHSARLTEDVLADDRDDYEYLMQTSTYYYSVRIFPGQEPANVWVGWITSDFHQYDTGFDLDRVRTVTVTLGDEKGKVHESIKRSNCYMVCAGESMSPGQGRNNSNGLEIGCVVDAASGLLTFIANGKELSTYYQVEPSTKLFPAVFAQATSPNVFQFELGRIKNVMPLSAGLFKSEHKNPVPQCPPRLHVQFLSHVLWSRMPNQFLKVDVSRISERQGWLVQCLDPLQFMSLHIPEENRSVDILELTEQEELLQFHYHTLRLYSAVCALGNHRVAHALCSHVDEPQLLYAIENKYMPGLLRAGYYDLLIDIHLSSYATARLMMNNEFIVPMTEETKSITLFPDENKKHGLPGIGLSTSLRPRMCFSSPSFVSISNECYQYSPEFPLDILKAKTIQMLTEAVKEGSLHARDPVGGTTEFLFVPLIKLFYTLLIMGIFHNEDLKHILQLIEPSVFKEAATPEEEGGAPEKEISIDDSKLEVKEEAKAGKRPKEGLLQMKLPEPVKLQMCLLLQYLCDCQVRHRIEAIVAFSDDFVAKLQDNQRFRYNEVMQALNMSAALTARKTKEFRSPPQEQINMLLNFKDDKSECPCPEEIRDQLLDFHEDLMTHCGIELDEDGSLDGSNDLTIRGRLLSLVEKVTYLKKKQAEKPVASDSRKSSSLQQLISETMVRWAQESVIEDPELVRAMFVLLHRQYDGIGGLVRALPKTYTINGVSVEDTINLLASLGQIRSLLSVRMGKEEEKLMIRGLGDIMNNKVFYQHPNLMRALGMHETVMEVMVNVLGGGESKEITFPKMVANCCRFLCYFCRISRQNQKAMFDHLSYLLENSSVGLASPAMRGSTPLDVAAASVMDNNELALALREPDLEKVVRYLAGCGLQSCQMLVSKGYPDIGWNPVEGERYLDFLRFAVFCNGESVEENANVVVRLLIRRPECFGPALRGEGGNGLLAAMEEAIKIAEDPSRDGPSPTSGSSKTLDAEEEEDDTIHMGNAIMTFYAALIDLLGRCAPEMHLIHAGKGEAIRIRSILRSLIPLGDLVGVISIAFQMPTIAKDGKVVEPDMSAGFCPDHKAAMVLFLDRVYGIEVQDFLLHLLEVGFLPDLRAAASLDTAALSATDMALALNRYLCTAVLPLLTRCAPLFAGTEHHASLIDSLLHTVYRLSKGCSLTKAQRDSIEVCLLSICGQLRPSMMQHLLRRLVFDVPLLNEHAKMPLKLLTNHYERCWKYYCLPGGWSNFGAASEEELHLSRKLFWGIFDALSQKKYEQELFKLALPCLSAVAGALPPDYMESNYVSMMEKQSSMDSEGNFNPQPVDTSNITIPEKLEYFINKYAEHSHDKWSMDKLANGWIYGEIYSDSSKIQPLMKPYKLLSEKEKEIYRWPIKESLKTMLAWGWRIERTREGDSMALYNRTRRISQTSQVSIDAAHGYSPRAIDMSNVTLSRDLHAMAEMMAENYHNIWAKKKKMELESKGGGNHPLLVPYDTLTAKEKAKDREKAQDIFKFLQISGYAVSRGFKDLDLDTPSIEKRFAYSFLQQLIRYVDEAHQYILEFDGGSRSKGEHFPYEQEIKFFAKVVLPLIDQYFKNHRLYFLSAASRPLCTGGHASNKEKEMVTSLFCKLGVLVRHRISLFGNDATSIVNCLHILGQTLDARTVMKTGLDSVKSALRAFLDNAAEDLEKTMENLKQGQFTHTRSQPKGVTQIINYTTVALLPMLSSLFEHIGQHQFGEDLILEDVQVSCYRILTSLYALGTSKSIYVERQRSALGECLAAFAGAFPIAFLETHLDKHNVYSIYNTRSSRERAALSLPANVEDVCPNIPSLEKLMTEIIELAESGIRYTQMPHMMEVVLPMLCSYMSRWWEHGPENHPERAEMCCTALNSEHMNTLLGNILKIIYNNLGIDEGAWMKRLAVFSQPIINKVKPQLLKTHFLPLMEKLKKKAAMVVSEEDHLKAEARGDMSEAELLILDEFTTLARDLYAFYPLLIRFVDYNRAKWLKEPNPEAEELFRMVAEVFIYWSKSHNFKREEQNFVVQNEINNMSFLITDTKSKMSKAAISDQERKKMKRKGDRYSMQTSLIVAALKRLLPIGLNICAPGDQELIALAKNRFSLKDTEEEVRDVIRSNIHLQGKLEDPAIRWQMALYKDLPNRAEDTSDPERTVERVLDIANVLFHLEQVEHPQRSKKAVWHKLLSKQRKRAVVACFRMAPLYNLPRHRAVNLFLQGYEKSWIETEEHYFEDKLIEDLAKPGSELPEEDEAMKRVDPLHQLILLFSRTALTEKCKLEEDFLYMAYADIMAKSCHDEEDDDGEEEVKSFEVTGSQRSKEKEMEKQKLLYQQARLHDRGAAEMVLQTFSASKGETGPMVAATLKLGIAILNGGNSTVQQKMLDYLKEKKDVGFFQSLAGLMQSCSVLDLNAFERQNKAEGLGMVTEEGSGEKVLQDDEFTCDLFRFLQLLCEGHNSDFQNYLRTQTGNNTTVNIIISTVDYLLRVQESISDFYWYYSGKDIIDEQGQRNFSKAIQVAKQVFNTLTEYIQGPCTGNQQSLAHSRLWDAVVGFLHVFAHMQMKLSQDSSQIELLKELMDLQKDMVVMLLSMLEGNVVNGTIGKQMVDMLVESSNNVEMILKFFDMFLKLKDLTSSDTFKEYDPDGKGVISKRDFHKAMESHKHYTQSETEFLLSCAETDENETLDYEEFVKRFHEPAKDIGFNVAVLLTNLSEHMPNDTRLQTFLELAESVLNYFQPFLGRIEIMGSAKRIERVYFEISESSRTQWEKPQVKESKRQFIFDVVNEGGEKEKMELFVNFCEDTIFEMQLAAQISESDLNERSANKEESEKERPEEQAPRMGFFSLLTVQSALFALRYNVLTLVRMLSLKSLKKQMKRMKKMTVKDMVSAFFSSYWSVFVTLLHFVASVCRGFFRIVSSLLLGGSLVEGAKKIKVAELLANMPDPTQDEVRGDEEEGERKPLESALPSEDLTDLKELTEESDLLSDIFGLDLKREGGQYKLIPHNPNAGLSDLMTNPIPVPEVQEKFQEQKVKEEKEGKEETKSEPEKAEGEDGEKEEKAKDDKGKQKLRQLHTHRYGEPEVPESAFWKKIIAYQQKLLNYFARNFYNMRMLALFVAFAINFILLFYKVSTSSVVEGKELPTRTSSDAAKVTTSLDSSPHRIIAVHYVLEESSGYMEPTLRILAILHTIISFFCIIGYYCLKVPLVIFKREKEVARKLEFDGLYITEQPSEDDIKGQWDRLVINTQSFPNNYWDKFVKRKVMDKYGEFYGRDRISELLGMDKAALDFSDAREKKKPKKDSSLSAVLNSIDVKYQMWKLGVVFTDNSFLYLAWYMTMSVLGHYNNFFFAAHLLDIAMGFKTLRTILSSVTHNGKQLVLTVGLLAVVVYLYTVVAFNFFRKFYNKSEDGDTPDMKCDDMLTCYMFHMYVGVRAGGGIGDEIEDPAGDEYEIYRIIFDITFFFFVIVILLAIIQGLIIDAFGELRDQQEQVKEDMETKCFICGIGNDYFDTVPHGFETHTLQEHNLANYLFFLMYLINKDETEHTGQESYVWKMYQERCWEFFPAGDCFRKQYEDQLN
Sequence of Cardiac ryanodine receptor (RyR2) in rat ventricular myocytes (B0LPN4 whole entry): as above

Turning to “Fluorescent calmodulin (CaM labeled with Alexa Fluor 568) (from UniProt P0DP23 1-149) (natural protein)”, the equilibrium dissociation constant (Kd) in experiment [1] stood at 10 nM; in experiment [2] it was 12 nM.

B1: Fluorescent FKBP12.6 (FK506 binding protein 12.6 labeled with Alexa Fluor 488) (natural protein)
chain: MGVEIETISPGDGRCFPKKGQTAVVHYTGMLQNGKKFDSSRDRNKPFKFRIGKQEVIKGFEEGAAQMSLGQRAKLTITPDVAYGATGHPGVIPPNATLIFDVELLNLE
modifications: Alexa Fluor 488 label (site not stated)
In turn, B1 had a Kd in experiment [3] of 0.8 ± 0.1 nM.
